Measurements published in US20090098127A1 (MEDICAL RESEARCH FUND OF TEL AVIV SOURASKY MEDICAL CENTER, published 2009).

Columns and labels:
[1] = biological target: T1, hypoxia-inducible factor 1, alpha subunit isoform 1 (HIF-1α), untagged (human, UniProt Q16665 1-826); assay: cell-based or functional assay
HIF-1β = biological target: T2, HIF-1β (UniProt P27540 2-789, limits assumed); assay: co-IP with anti-Flag antibody, HIF-1β immunoblot, HEK 293 cells
T2 construct: Endogenous protein in HEK 293 lysates; also called HIF-1β protein
T2 sequence (P27540 2-789 limits assumed): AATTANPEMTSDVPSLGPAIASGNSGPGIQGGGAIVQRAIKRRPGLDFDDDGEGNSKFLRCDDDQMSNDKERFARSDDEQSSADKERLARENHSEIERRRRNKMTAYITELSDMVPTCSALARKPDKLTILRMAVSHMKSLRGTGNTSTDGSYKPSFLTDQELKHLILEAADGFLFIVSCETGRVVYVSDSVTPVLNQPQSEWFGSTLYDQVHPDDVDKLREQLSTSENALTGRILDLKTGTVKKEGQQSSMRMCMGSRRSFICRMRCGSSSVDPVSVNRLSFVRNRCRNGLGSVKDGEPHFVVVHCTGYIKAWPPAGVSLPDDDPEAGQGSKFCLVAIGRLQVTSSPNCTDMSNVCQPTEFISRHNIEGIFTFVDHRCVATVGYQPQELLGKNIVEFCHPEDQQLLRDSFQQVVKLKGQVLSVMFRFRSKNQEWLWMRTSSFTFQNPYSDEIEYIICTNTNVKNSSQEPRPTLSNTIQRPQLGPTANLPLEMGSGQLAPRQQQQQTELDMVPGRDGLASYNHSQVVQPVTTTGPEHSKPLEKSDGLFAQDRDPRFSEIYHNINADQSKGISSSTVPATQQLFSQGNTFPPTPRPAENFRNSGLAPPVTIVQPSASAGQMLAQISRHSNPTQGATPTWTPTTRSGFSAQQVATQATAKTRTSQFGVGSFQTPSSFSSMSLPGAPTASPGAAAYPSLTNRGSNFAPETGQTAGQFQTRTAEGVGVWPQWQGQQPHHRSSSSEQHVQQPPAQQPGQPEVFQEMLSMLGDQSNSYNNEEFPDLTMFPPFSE
From the text: FIGS. 3a-f are autoradiograms illustrating HIF-1α immunoblotting of FLAG immunoprecipitates (IP) (FIG. 3b) or whole cell extracts (WCE) (FIG. 3a), FLAG immunoblotting of HIF-1α IP (FIG. 3d) or WCE (FIG. 3c), and HIF-1β immunoblotting of FLAG IP (FIG. 3f) or WCE (FIG. 3e). HEK 293 cells were transiently co-transfected with two of the following expression vectors: p3×Flag-cmv-25 (EV), pcdna3.1-HIF-1α (HIF-1α) or p3×Flag-MSF-A (MSF-A), and two days following transfection under normoxic conditions WCE or IP were subjected to immunoblot (IB) analysis. Lane 1-EV and HIF-1α; lane 2-MSF-A and HIF-1α.
To confirm the interaction between the HIF-1α and the MSF-A proteins, HEK 293 cells were transiently co-transfected with the p3×Flag-MSF-A and the pcDNA3.1-HIF-1α vectors, and were grown for 24 hours under normoxic conditions (i.e., conditions of 20% oxygen), following which whole cell extracts (WCE) were subjected to co-immunoprecipitation (IP) using anti-FLAG or anti-HIF-1α antibodies. Following IP, the proteins were subjected to SDS-PAGE and immunoblotting (IB) using the counterpart antibody. As is shown in FIGS. 3a-d, following transfection with both expression vectors (i.e., pcDNA3.1-HIF-1α and p3×Flag-MSF-A) immunoprecipitates generated using either the anti-HIF-1α antibody or the anti-Flag antibody included the reciprocal proteins, i.e., the Flag-MSF-A or HIF-1α proteins, respectively.

p300 co-activator = biological target: T3, p300 co-activator (UniProt Q09472 2-2414); assay: co-IP with anti-Flag antibody, p300 immunoblot; association within the HIF-1α complex, may be indirect
T3 construct: Endogenous protein, detected with anti-p300 antibody (Santa Cruz); also called p300 protein
T3 sequence (Q09472 2-2414 limits assumed): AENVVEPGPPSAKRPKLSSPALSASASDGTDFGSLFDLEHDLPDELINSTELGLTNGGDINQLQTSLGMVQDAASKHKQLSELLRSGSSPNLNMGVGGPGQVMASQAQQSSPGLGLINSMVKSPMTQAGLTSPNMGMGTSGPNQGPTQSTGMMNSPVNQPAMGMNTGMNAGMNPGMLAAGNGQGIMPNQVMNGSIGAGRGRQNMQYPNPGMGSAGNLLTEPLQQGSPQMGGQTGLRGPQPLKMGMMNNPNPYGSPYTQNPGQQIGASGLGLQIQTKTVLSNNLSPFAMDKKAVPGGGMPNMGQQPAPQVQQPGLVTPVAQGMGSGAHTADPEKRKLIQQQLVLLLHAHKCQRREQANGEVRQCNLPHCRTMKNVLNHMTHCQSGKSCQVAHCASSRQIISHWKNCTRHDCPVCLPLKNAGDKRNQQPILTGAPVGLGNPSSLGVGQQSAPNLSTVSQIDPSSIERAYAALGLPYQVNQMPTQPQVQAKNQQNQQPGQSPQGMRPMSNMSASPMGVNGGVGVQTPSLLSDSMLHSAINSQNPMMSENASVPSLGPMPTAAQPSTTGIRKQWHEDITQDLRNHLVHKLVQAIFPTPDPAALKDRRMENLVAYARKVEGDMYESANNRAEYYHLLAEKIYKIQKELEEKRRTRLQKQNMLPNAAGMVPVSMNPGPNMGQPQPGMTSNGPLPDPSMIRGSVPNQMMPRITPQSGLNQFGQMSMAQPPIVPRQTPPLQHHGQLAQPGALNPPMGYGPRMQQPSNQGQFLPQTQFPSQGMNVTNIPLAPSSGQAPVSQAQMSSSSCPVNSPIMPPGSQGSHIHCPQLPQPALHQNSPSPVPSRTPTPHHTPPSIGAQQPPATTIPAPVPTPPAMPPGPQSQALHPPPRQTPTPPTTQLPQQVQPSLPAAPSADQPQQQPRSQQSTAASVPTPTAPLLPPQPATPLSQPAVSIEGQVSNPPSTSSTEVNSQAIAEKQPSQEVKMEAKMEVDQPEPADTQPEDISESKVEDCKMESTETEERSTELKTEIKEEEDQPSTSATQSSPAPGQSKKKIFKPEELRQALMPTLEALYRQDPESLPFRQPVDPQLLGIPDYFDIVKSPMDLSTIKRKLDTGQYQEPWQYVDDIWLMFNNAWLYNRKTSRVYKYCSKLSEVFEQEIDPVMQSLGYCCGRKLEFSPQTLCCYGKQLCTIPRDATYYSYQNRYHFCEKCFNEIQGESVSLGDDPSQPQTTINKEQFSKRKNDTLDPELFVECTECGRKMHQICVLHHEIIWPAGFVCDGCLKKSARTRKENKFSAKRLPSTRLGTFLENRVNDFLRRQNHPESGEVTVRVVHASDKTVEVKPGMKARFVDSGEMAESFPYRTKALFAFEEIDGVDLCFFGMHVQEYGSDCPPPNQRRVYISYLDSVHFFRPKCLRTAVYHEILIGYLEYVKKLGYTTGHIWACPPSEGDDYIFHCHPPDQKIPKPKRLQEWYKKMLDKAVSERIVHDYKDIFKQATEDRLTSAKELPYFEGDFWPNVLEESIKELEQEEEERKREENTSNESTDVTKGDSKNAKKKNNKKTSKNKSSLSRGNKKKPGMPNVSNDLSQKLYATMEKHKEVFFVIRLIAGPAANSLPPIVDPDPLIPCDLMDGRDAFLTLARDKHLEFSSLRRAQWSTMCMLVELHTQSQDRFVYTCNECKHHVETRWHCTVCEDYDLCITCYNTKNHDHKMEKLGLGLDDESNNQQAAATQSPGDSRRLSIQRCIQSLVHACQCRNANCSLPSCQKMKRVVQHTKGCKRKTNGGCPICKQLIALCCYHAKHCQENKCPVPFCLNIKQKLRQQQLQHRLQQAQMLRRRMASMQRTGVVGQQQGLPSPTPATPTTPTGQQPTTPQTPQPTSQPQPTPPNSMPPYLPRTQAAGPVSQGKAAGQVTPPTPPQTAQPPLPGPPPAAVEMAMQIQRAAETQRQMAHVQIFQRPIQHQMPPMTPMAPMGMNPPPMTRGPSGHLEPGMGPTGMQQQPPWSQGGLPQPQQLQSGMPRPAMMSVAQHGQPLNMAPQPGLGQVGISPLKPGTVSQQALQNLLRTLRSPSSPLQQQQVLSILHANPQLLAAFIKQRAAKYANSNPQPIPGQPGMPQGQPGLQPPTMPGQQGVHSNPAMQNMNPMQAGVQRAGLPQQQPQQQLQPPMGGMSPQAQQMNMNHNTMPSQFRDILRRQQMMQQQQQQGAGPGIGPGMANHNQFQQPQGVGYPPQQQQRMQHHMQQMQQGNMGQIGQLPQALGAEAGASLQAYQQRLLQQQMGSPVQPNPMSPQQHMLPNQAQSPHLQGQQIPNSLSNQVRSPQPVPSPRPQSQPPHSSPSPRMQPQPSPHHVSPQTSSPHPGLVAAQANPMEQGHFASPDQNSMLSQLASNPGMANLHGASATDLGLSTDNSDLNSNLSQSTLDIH
Experimental: The p300 co-activator is associated with HIF-1α and MSF-A proteins—To test the hypothesis that proteins, which are known to interact with the HIF-1α protein, such as the co-activator p300, are associated with MSF-A and HIF-1α, cells were co-transfected with the pcDNA3.1-HIF-1α and the p3×Flag-MSF-A expression vectors and IP experiments were performed using either anti-FLAG or anti-HIF-1α antibodies. As shown in FIGS. 5a-c, while the anti-HIF-1α antibody was capable of precipitating the p300 protein in both cells co-transfected with the pcDNA3.1-HIF-1α and the p3×Flag-cmv-25 expression vector alone and cells co-transfected with the pcDNA3.1-HIF-1α and the p3×Flag-MSF-A vectors, the anti-Flag antibody was capable of precipitating the p300 protein only in cells that were co-transfected with the pcDNA3.1-HIF-1α and the p3×Flag-MSF-A vectors.

[2] = biological target: T1, hypoxia-inducible factor 1, alpha …; assay: IP with HIF-1α antibody, Flag immunoblot, HEK 293 cells

T1 sequence (Q16665 whole entry, canonical isoform): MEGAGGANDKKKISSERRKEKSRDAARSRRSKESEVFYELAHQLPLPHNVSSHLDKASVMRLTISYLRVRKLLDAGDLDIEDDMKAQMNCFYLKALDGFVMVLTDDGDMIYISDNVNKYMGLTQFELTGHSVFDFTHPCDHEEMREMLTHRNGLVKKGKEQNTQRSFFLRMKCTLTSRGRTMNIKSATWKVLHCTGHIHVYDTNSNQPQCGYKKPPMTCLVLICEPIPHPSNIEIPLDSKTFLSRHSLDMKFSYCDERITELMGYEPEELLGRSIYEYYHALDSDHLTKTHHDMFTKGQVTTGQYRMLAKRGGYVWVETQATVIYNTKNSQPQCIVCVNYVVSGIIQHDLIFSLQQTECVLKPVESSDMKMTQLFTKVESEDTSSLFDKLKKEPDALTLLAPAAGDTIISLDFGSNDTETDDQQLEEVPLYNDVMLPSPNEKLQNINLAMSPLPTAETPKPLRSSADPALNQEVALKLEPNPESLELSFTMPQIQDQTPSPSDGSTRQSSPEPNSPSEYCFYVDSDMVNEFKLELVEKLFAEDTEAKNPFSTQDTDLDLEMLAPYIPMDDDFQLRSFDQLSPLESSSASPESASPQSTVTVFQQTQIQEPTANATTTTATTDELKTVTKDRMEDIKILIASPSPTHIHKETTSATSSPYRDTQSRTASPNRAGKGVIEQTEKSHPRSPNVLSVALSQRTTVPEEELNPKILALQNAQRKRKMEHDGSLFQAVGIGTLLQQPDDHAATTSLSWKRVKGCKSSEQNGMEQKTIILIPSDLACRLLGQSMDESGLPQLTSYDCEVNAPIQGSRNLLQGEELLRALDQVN

Binder | degradation half-life of HIF-1α (cycloheximide, PC-3-MSF-A cells against PC-3-Neo cells) [1] [min] | half-life of HIF-1α protein (pulse-chase, PC-3-MSF-A cells against PC-3-Neo cells) [1] [min] | luciferase activity (HRE reporter), hypoxia as compared to normoxia, PC-3 cells [1] [fold] | binding result (HIF-1β) | binding result (p300 co-activator) | binding result [2]
Flag-MSF-A (p3×Flag-MSF-A product, wild type) (other, not shown: small tags and cut ends, FLAG at the amino terminal of the recombinant protein; Expressed in HEK 293 or PC-3 cells and assayed in lysates; also called Flag-tagged MSF-A; recombinant MSF-A) MKKSYSGGTRTSSGRLRRLGDSSGPALKRSFEVEEVETPNSTPPRRVQTPLLRATVASSTQKFQDLGVKNSEPSARHVDSLSQRSPKASLRRVELSGPKAAEPVSRRTELSIDISSKQVENAGAIGPSRFGLKRAEVLGHKTPEPAPRRTEITIVKPQESAHRRMEPPASKVPEVPTAPATDAAPKRVEIQMPKPAEAPTAPSPAQTLENSEPAPVSQLQSRLEPKPQPPVAEATPRSQEATEAAPSCVGDMADTPRDAGLKQAPASRNEKAPVDFGYVGIDSILEQMRRKAMKQGFEFNIMVVGQSGLGKSTLINTLFKSKISRKSVQPTSEERIPKTIEIKSITHDIEEKGVRMKLTVIDTPGFGDHINNENCWQPIMKFINDQYEKYLQEEVNINRKKRIPDTRVHCCLYFIPATGHSLRPLDIEFMKRLSKVVNIVPVIAKADTLTLEERVHFKQRITADLLSNGIDVYPQKEFDEDSEDRLVNEKFREMIPFAVVGSDHEYQVNGKRILGRKTKWGTIEVENTTHCEFAYLRDLLIRTHMQNIKDITSSIHFEAYRVKRLNEGSSAMANGVEEKEPEAPEM | 40 | ~45 | 50 | no binding | binds | –
Flag-ΔN-MSF-A (p3×Flag-ΔN-MSF-A product) (other, Deletion of the first 25 amino acids of MSF-A; also called N-terminal truncated form of MSF-A; not shown: N-terminal Flag tag from vector p3×FLAG-myc-CMV-25) ALKRSFEVEEVETPNSTPPRRVQTPLLRATVASSTQKFQDLGVKNSEPSARHVDSLSQRSPKASLRRVELSGPKAAEPVSRRTELSIDISSKQVENAGAIGPSRFGLKRAEVLGHKTPEPAPRRTEITIVKPQESAHRRMEPPASKVPEVPTAPATDAAPKRVEIQMPKPAEAPTAPSPAQTLENSEPAPVSQLQSRLEPKPQPPVAEATPRSQEATEAAPSCVGDMADTPRDAGLKQAPASRNEKAPVDFGYVGIDSILEQMRRKAMKQGFEFNIMVVGQSGLGKSTLINTLFKSKISRKSVQPTSEERIPKTIEIKSITHDIEEKGVRMKLTVIDTPGFGDHINNENCWQPIMKFINDQYEKYLQEEVNINRKKRIPDTRVHCCLYFIPATGHSLRPLDIEFMKRLSKVVNIVPVIAKADTLTLEERVHFKQRITADLLSNGIDVYPQKEFDEDSEDRLVNEKFREMIPFAVVGSDHEYQVNGKRILGRKTKWGTIEVENTTHCEFAYLRDLLIRTHMQNIKDITSSIHFEAYRVKRLNEGSSAMANGVEEKEPEAPEM | – | – | – | – | – | binds
Flag-ΔG-MSF-A (p3×Flag-ΔG-MSF-A product) (other, also called AG-MSF-A; not shown: N-terminal Flag tag from vector p3×Flag-myc-CMV-25) MKKSYSGGTRTSSGRLRRLGDSSGPALKRSFEVEEVETPNSTPPRRVQTPLLRATVASSTQKFQDLGVKNSEPSARHVDSLSQRSPKASLRRVELSGPKAAEPVSRRTELSIDISSKQVENAGAIGPSRFGLKRAEVLGHKTPEPAPRRTEITIVKPQESAHRRMEPPASKVPEVPTAPATDAAPKRVEIQMPKPAEAPTAPSPAQTLENSEPAPVSQLQSRLEPKPQPPVAEATPRSQEATEAAPSCVGDMADTPRDAGLKQAPASRNEKAPVDFGYVGIDSILEQMRRKAMKQGFEFNIMVVTLINTLFKSKISRKSVQPTSEERIPKTIEIKSITHDIEEKGVRMKLTVIDTPGFGDHINNENCWQPIMKFINDQYEKYLQEEVNINRKKRIPDTRVHCCLYFIPATGHSLRPLDIEFMKRLSKVVNIVPVIAKADTLTLEERVHFKQRITADLLSNGIDVYPQKEFDEDSEDRLVNEKFREMIPFAVVGSDHEYQVNGKRILGRKTKWGTIEVENTTHCEFAYLRDLLIRTHMQNIKDITSSIHFEAYRVKRLNEGSSAMANGVEEKEPEAPEM | – | – | – | – | – | binds
